This note sets out measurements from paper PMC4070431.

The Ki is a dissociation constant, usually derived from enzyme kinetics or from competition with a known ligand.

The target in test [1] is human natriuretic peptide receptor-B (NPR-B) (human) (UniProt P20594).
Test [2] deals with human natriuretic peptide receptor-A (NPR-A) (human) (UniProt P16066).
Test [3] has as its target human natriuretic peptide receptor-C (NPR-C) (human) (UniProt P17342). Nature of the test: radioligand binding.
Test [4] addresses human natriuretic peptide receptor-A (NPR-A) (human) (UniProt P16066). Nature of the test: radioligand binding.
Test [5] addresses non-selective somatostatin receptor (sst).

human natriuretic peptide receptor-A (NPR-A) (human), sequence (P16066 33-1061): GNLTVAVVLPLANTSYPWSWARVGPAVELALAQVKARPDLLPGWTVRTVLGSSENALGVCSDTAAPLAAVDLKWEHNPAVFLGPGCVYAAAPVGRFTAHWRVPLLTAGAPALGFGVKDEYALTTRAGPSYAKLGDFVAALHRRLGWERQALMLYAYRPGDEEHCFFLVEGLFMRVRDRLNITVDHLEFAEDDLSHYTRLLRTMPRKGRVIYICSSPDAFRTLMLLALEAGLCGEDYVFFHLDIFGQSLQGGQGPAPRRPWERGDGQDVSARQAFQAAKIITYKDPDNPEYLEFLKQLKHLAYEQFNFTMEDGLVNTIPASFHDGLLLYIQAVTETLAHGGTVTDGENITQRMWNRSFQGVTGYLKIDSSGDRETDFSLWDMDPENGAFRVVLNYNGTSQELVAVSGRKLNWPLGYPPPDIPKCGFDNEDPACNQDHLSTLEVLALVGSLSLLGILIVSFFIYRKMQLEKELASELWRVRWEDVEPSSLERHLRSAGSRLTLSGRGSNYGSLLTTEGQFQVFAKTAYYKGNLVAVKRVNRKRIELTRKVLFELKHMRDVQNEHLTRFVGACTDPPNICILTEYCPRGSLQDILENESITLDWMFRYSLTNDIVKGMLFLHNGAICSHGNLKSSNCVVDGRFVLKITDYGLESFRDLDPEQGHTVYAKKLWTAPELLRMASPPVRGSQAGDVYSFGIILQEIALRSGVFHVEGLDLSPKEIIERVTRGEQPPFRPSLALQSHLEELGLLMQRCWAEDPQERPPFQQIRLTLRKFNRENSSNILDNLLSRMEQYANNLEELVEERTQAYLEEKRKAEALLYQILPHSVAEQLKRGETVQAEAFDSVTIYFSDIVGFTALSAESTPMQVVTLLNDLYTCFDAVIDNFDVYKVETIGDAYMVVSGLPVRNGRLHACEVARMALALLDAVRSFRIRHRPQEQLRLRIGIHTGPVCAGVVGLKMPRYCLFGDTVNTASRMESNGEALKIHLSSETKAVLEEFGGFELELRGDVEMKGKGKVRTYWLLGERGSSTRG
human natriuretic peptide receptor-C (NPR-C) (human), sequence (P17342 27-541): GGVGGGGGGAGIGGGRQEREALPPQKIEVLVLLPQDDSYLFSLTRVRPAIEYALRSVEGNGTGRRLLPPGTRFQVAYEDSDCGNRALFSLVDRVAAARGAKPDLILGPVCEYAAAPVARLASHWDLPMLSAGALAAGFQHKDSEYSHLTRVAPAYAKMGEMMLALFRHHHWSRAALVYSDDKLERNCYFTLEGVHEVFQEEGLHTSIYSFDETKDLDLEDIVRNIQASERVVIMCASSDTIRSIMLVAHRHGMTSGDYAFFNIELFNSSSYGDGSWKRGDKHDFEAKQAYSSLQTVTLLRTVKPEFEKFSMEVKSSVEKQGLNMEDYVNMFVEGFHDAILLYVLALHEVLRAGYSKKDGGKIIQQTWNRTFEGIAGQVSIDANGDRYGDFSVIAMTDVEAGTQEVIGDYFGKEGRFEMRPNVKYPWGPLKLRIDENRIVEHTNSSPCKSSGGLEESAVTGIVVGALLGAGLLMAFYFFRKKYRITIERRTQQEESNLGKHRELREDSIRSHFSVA
human natriuretic peptide receptor-B (NPR-B) (human), sequence (P20594 23-1047): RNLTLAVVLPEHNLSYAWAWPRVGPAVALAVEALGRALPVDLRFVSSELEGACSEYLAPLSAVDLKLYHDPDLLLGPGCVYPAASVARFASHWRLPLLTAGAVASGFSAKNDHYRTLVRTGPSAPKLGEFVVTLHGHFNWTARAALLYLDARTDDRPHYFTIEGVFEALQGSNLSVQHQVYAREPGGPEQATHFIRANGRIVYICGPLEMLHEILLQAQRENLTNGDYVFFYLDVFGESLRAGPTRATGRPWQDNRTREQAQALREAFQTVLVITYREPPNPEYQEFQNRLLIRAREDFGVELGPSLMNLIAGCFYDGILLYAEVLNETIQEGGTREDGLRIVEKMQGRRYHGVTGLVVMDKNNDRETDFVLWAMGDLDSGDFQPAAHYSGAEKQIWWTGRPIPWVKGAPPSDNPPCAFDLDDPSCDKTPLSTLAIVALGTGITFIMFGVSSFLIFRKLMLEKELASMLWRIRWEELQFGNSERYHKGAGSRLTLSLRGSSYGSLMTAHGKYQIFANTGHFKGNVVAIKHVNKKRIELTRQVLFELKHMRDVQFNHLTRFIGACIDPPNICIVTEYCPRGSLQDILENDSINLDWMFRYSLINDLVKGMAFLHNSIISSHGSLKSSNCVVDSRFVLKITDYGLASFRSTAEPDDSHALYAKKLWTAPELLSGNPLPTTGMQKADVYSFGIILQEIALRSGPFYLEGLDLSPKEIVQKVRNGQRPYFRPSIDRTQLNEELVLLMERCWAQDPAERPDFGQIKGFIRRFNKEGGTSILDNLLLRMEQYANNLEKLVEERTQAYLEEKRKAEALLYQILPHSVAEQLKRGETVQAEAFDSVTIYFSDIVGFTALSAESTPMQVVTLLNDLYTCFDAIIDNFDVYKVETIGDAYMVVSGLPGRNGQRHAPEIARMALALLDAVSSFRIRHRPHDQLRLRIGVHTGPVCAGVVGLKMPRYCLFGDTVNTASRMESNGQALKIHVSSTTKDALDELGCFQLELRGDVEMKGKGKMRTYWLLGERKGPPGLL

The substance “human brain natriuretic peptide (hBNP) (ligand)” returned a cGMP generation in HEK293 cells expressing the receptor (up to 10 µM), Emax in test [1] of 9 % hCNP. Moreover, in test [2], the cGMP generation in HEK293 cells expressing the receptor, EC50 stood at 2 nM. In test [2], this substance yielded a cGMP generation in HEK293 cells expressing the receptor, Emax of 96 % hANP. The inhibition constant (Ki) in test [3] is 0.7 nM; in test [4], 3 nM.

The substance “PL-3994 (Hept-cyclo(Cys-His-Phe-D-Ala-Gly-Arg-D-Nle-Asp-Arg-Ile-Ser-Cys)-Tyr-[Arg mimetic]-NH2) (peptide)” gave a Ki in test [5] of 4200 nM.
